Measurements: patent US20210032299A1
Starred links: 1 amine or outer side, 2 acyl side, 3 side chain; linkers in the order of their positions; H or OH if unused. Non-standard residues stand in square brackets, D forms with d. Groups on a side chain read outwards from the residue. No end group written: not given here. *: point of attachment. C20 diacid = O=C(O)CCCCCCCCCCCCCCCCCCC(=O)*; C18 diacid = O=C(O)CCCCCCCCCCCCCCCCC(=O)*; αMePhe(2-F) = C[C@](N)(Cc1ccccc1F)C(=O)O; γGlu = O=C(O)[C@H](CCC(=O)[*:2])N[*:1]; 4Pal = N[C@@H](Cc1ccncc1)C(=O)O; αMeL = CC(C)C[C@](C)(N)C(=O)O; Orn = NCCC[C@H](N)C(=O)O; AEEA = NCCOCCOCC(=O)O; Aib = CC(C)(N)C(=O)O

T1: human glucose-dependent insulinotropic polypeptide (GIP) receptor (human), P48546
T1 chain: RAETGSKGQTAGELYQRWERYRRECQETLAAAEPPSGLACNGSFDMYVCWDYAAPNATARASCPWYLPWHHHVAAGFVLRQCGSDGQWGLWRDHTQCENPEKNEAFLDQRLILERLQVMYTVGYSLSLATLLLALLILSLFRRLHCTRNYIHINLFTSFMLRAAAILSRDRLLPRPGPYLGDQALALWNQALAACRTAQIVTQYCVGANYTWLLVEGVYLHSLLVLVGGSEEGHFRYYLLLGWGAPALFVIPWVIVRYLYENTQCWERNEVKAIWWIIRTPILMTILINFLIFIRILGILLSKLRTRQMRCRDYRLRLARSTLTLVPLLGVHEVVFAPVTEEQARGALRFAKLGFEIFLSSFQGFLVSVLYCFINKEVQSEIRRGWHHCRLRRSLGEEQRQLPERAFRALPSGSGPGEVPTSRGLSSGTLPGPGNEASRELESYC


Experiments:
[1] = target: human glucagon receptor (human), P47871; assay: SPA, displacement of [125I]-Gcg from hGcgR membranes, 0.1% bacitracin
[2] = target: T1, human glucose-dependent insulinotropic …; assay: SPA, displacement of [125I]-GIP from hGIPR membranes, 0.1% bacitracin

human glucagon receptor (human), P47871, sequence (P47871 26-477): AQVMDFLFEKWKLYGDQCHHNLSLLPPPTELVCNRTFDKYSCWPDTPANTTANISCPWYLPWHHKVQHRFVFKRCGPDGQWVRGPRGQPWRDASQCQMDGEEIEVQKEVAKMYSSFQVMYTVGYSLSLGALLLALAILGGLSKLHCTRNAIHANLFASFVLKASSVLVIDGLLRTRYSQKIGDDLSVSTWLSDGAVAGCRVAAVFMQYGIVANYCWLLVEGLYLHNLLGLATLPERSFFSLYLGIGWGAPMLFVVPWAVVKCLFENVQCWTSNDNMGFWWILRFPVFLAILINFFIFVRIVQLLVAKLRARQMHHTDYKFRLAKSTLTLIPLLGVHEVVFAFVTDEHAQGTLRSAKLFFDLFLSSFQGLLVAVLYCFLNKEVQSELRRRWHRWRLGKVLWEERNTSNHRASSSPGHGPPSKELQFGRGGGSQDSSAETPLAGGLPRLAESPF

Row | Binder | Ki [1] [nM] | Ki [2] [nM]
1 | Y[Aib]EGTFISDYSI[αMeL]LDKIHQ[Aib]DFVEYK([AEEA-AEEA-γGlu-C20 diacid])LEGGPSSGAPPPS-NH2 (N-terminus assumed; SMILES CC[C@H](C)[C@H](NC(=O)[C@H](CCCCN)NC(=O)[C@H](CC(=O)O)NC(=O)[C@H](CC(C)C)NC(=O)[C@](C)(CC(C)C)NC(=O)[C@@H](NC(=O)[C@H](CO)NC(=O)[C@H](Cc1ccc(O)cc1)NC(=O)[C@H](CC(=O)O)NC(=O)[C@H](CO)NC(=O)[C@@H](NC(=O)[C@H](Cc1ccccc1)NC(=O)[C@@H](NC(=O)CNC(=O)[C@H](CCC(=O)O)NC(=O)C(C)(C)NC(=O)[C@@H](N)Cc1ccc(O)cc1)[C@@H](C)O)[C@@H](C)CC)[C@@H](C)CC)C(=O)N[C@@H](Cc1c[nH]cn1)C(=O)N[C@@H](CCC(N)=O)C(=O)NC(C)(C)C(=O)N[C@@H](CC(=O)O)C(=O)N[C@@H](Cc1ccccc1)C(=O)N[C@H](C(=O)N[C@@H](CCC(=O)O)C(=O)N[C@@H](Cc1ccc(O)cc1)C(=O)N[C@@H](CCCCNC(=O)COCCOCCNC(=O)COCCOCCNC(=O)CC[C@H](NC(=O)CCCCCCCCCCCCCCCCCCC(=O)O)C(=O)O)C(=O)N[C@@H](CC(C)C)C(=O)N[C@@H](CCC(=O)O)C(=O)NCC(=O)NCC(=O)N1CCC[C@H]1C(=O)N[C@@H](CO)C(=O)N[C@@H](CO)C(=O)NCC(=O)N[C@@H](C)C(=O)N1CCC[C@H]1C(=O)N1CCC[C@H]1C(=O)N1CCC[C@H]1C(=O)N[C@@H](CO)C(N)=O)C(C)C) [Example 5] | 619 | 0.0771
2 | Y[Aib]EGT[αMePhe(2-F)]ISDYSIALDKIHQ[Aib]EFVNYK([AEEA-AEEA-γGlu-C18 diacid])LAGGPSSGAPPPS-NH2 (N-terminus assumed; SMILES CC[C@H](C)[C@H](NC(=O)[C@H](CO)NC(=O)[C@H](Cc1ccc(O)cc1)NC(=O)[C@H](CC(=O)O)NC(=O)[C@H](CO)NC(=O)[C@@H](NC(=O)[C@](C)(Cc1ccccc1F)NC(=O)[C@@H](NC(=O)CNC(=O)[C@H](CCC(=O)O)NC(=O)C(C)(C)NC(=O)[C@@H](N)Cc1ccc(O)cc1)[C@@H](C)O)[C@@H](C)CC)C(=O)N[C@@H](C)C(=O)N[C@@H](CC(C)C)C(=O)N[C@@H](CC(=O)O)C(=O)N[C@@H](CCCCN)C(=O)N[C@H](C(=O)N[C@@H](Cc1c[nH]cn1)C(=O)N[C@@H](CCC(N)=O)C(=O)NC(C)(C)C(=O)N[C@@H](CCC(=O)O)C(=O)N[C@@H](Cc1ccccc1)C(=O)N[C@H](C(=O)N[C@@H](CC(N)=O)C(=O)N[C@@H](Cc1ccc(O)cc1)C(=O)N[C@@H](CCCCNC(=O)COCCOCCNC(=O)COCCOCCNC(=O)CC[C@H](NC(=O)CCCCCCCCCCCCCCCCC(=O)O)C(=O)O)C(=O)N[C@@H](CC(C)C)C(=O)N[C@@H](C)C(=O)NCC(=O)NCC(=O)N1CCC[C@H]1C(=O)N[C@@H](CO)C(=O)N[C@@H](CO)C(=O)NCC(=O)N[C@@H](C)C(=O)N1CCC[C@H]1C(=O)N1CCC[C@H]1C(=O)N1CCC[C@H]1C(=O)N[C@@H](CO)C(N)=O)C(C)C)[C@@H](C)CC) [Example 94] | 114 | 0.031
3 | Y[Aib]EGT[αMePhe(2-F)]ISDYSIALDKIHQ[Aib]DFVEYK([AEEA-AEEA-γGlu-C20 diacid])LEGGPSSGAPPPS-NH2 (N-terminus assumed; SMILES CC[C@H](C)[C@H](NC(=O)[C@H](CO)NC(=O)[C@H](Cc1ccc(O)cc1)NC(=O)[C@H](CC(=O)O)NC(=O)[C@H](CO)NC(=O)[C@@H](NC(=O)[C@](C)(Cc1ccccc1F)NC(=O)[C@@H](NC(=O)CNC(=O)[C@H](CCC(=O)O)NC(=O)C(C)(C)NC(=O)[C@@H](N)Cc1ccc(O)cc1)[C@@H](C)O)[C@@H](C)CC)C(=O)N[C@@H](C)C(=O)N[C@@H](CC(C)C)C(=O)N[C@@H](CC(=O)O)C(=O)N[C@@H](CCCCN)C(=O)N[C@H](C(=O)N[C@@H](Cc1c[nH]cn1)C(=O)N[C@@H](CCC(N)=O)C(=O)NC(C)(C)C(=O)N[C@@H](CC(=O)O)C(=O)N[C@@H](Cc1ccccc1)C(=O)N[C@H](C(=O)N[C@@H](CCC(=O)O)C(=O)N[C@@H](Cc1ccc(O)cc1)C(=O)N[C@@H](CCCCNC(=O)COCCOCCNC(=O)COCCOCCNC(=O)CC[C@H](NC(=O)CCCCCCCCCCCCCCCCCCC(=O)O)C(=O)O)C(=O)N[C@@H](CC(C)C)C(=O)N[C@@H](CCC(=O)O)C(=O)NCC(=O)NCC(=O)N1CCC[C@H]1C(=O)N[C@@H](CO)C(=O)N[C@@H](CO)C(=O)NCC(=O)N[C@@H](C)C(=O)N1CCC[C@H]1C(=O)N1CCC[C@H]1C(=O)N1CCC[C@H]1C(=O)N[C@@H](CO)C(N)=O)C(C)C)[C@@H](C)CC) [Example 99] | 174 | 0.0341
4 | Y[Aib]EGTFISDYSI[αMeL]LDKIHQ[Aib]EFVE[4Pal]K([AEEA-AEEA-γGlu-C20 diacid])LEGGPSSGAPPPS-NH2 (N-terminus assumed; SMILES CC[C@H](C)[C@H](NC(=O)[C@H](CCCCN)NC(=O)[C@H](CC(=O)O)NC(=O)[C@H](CC(C)C)NC(=O)[C@](C)(CC(C)C)NC(=O)[C@@H](NC(=O)[C@H](CO)NC(=O)[C@H](Cc1ccc(O)cc1)NC(=O)[C@H](CC(=O)O)NC(=O)[C@H](CO)NC(=O)[C@@H](NC(=O)[C@H](Cc1ccccc1)NC(=O)[C@@H](NC(=O)CNC(=O)[C@H](CCC(=O)O)NC(=O)C(C)(C)NC(=O)[C@@H](N)Cc1ccc(O)cc1)[C@@H](C)O)[C@@H](C)CC)[C@@H](C)CC)C(=O)N[C@@H](Cc1c[nH]cn1)C(=O)N[C@@H](CCC(N)=O)C(=O)NC(C)(C)C(=O)N[C@@H](CCC(=O)O)C(=O)N[C@@H](Cc1ccccc1)C(=O)N[C@H](C(=O)N[C@@H](CCC(=O)O)C(=O)N[C@@H](Cc1ccncc1)C(=O)N[C@@H](CCCCNC(=O)COCCOCCNC(=O)COCCOCCNC(=O)CC[C@H](NC(=O)CCCCCCCCCCCCCCCCCCC(=O)O)C(=O)O)C(=O)N[C@@H](CC(C)C)C(=O)N[C@@H](CCC(=O)O)C(=O)NCC(=O)NCC(=O)N1CCC[C@H]1C(=O)N[C@@H](CO)C(=O)N[C@@H](CO)C(=O)NCC(=O)N[C@@H](C)C(=O)N1CCC[C@H]1C(=O)N1CCC[C@H]1C(=O)N1CCC[C@H]1C(=O)N[C@@H](CO)C(N)=O)C(C)C) [Example 100] | 572 | 0.0674
5 | Y[Aib]EGTFISDYSI[αMeL]LD[Orn]IHQ[Aib]EFVEYK([AEEA-AEEA-γGlu-C20 diacid])LEQGPSSGAPPPS-NH2 (N-terminus assumed; SMILES CC[C@H](C)[C@H](NC(=O)[C@H](CCCN)NC(=O)[C@H](CC(=O)O)NC(=O)[C@H](CC(C)C)NC(=O)[C@](C)(CC(C)C)NC(=O)[C@@H](NC(=O)[C@H](CO)NC(=O)[C@H](Cc1ccc(O)cc1)NC(=O)[C@H](CC(=O)O)NC(=O)[C@H](CO)NC(=O)[C@@H](NC(=O)[C@H](Cc1ccccc1)NC(=O)[C@@H](NC(=O)CNC(=O)[C@H](CCC(=O)O)NC(=O)C(C)(C)NC(=O)[C@@H](N)Cc1ccc(O)cc1)[C@@H](C)O)[C@@H](C)CC)[C@@H](C)CC)C(=O)N[C@@H](Cc1c[nH]cn1)C(=O)N[C@@H](CCC(N)=O)C(=O)NC(C)(C)C(=O)N[C@@H](CCC(=O)O)C(=O)N[C@@H](Cc1ccccc1)C(=O)N[C@H](C(=O)N[C@@H](CCC(=O)O)C(=O)N[C@@H](Cc1ccc(O)cc1)C(=O)N[C@@H](CCCCNC(=O)COCCOCCNC(=O)COCCOCCNC(=O)CC[C@H](NC(=O)CCCCCCCCCCCCCCCCCCC(=O)O)C(=O)O)C(=O)N[C@@H](CC(C)C)C(=O)N[C@@H](CCC(=O)O)C(=O)N[C@@H](CCC(N)=O)C(=O)NCC(=O)N1CCC[C@H]1C(=O)N[C@@H](CO)C(=O)N[C@@H](CO)C(=O)NCC(=O)N[C@@H](C)C(=O)N1CCC[C@H]1C(=O)N1CCC[C@H]1C(=O)N1CCC[C@H]1C(=O)N[C@@H](CO)C(N)=O)C(C)C) [Example 106] | 304 | 0.0918
6 | Y[Aib]EGTFISDYSI[αMeL]LD[Orn]IHQ[Aib]EFVEYK([AEEA-AEEA-γGlu-C20 diacid])LEGGPSSGAPPPS-NH2 (N-terminus assumed; SMILES CC[C@H](C)[C@H](NC(=O)[C@H](CCCN)NC(=O)[C@H](CC(=O)O)NC(=O)[C@H](CC(C)C)NC(=O)[C@](C)(CC(C)C)NC(=O)[C@@H](NC(=O)[C@H](CO)NC(=O)[C@H](Cc1ccc(O)cc1)NC(=O)[C@H](CC(=O)O)NC(=O)[C@H](CO)NC(=O)[C@@H](NC(=O)[C@H](Cc1ccccc1)NC(=O)[C@@H](NC(=O)CNC(=O)[C@H](CCC(=O)O)NC(=O)C(C)(C)NC(=O)[C@@H](N)Cc1ccc(O)cc1)[C@@H](C)O)[C@@H](C)CC)[C@@H](C)CC)C(=O)N[C@@H](Cc1c[nH]cn1)C(=O)N[C@@H](CCC(N)=O)C(=O)NC(C)(C)C(=O)N[C@@H](CCC(=O)O)C(=O)N[C@@H](Cc1ccccc1)C(=O)N[C@H](C(=O)N[C@@H](CCC(=O)O)C(=O)N[C@@H](Cc1ccc(O)cc1)C(=O)N[C@@H](CCCCNC(=O)COCCOCCNC(=O)COCCOCCNC(=O)CC[C@H](NC(=O)CCCCCCCCCCCCCCCCCCC(=O)O)C(=O)O)C(=O)N[C@@H](CC(C)C)C(=O)N[C@@H](CCC(=O)O)C(=O)NCC(=O)NCC(=O)N1CCC[C@H]1C(=O)N[C@@H](CO)C(=O)N[C@@H](CO)C(=O)NCC(=O)N[C@@H](C)C(=O)N1CCC[C@H]1C(=O)N1CCC[C@H]1C(=O)N1CCC[C@H]1C(=O)N[C@@H](CO)C(N)=O)C(C)C) [Example 107] | 347 | 0.0722
